# Experimental data as given in the supplement of paper PMC9170038.
# Tested on: MS2 coat protein
# Experiment: apparent KD of MS2 coat protein; designed switch direction (-1 OFF switch, 1 ON switch): 1; higher = weaker reporter binding
# Summary of the method: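 The apparent KD reported per design is the median over clusters of curve fits to normalised cluster fluorescence. The RNA switches were transcribed on Illumina chips by stalled E. coli RNA polymerase. SNAP-549-labelled MS2 coat protein was titrated from 0.7 or 1.5 nM, doubling up to 3 µM, in Tris-HCl pH 7.5 buffer containing KCl, MgCl2, BSA, DTT, tRNA and Tween-20, with no input, 200 uM small-molecule ligand, or an oligonucleotide input.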
# [1] = Eterna round: R95, input ligand: FMN 200 uM
# [2] = Eterna round: R95, input ligand: microRNA oligo, concentration not stated
# [3] = Eterna round: R95, input ligand: none
# [4] = input ligand: microRNA oligo, concentration not stated
Sequence,apparent KD of MS2 coat protein [1],apparent KD of MS2 coat protein [2],apparent KD of MS2 coat protein [3],apparent KD of MS2 coat protein (input ligand: FMN 200 uM),apparent KD of MS2 coat protein [4],apparent KD of MS2 coat protein (input ligand: none)
GUAGCAUGCAGGCAGGAUAUUCAUAUUAAAACAUGAGGAUCACCCAUGUAGGCCAGAAGGCCUUGGGAGAAGGGCCACAUGCUAC [Xeonanis - 17] (puzzle: Same State 2),36.9 nM,595 nM,800 nM,,,
"GUAGCAUACCGAGGAUAUUCACAUGAGGAUCACCCAUGUAUUAAUAGGCCACAUUAGUGGCCUUGGGAGAAGGCGGAAUGCUAC [Xeonanis - 20 Mod48] (Eterna round: R96, puzzle: Same State NG 2)",,,,10.8 nM,11 nM,14.6 nM
"GUAGCAUACCGAGGAUAUUCAUAUUAAACAUGAGGAUCACCCAUGUAUUAGGCCAAAAGGCCUUGGGAGAAGGCGGAAUGCUAC [Xeonanis - 20 Mod5] (Eterna round: R96, puzzle: Same State NG 2)",,,,24.6 nM,28.3 nM,48.3 nM
GUGGUGUAGAUACAGGAUAUGUUGCUCGUAACAUGAGGAUCACCCAUGUAUCUAUGAGAUUAAAUGCAGAAGGGUGCACACCACU [salish99_ss2_r3_086] (puzzle: Same State 2),15.7 nM,148 nM,325 nM,,,
"UGGAGACGUCAAGGAUAUGCUACCGUUUCGGUAGCAGAAGGUGAUCACAUGAGGAUCACCCAUGUAUGCAUGCGUGAGCGUGCU [JL SSNG1 3.52] (Eterna round: R96, puzzle: Same State NG 1)",,,,72.1 nM,2.49 nM,6.24 nM
"AAGUUAAGCUUUUUGUUCUGCCUAUUCUGACAUGAGGAUCACCCAUGUGGUCGAACGACUACGUGUGUAGUUGAGAU [JR_SHM208A_Sub030] (Eterna round: R96, puzzle: Sensor for hsa-mir-208a)",,,,493 nM,341 nM,550 nM
"CUGAGCGAUCAAGGAUAUCACGUCGUUUAGACGUGAGAAGGUGAUCAUAACAUGAGGAUCACCCAUGUAUUACAUGAAGCUCAG [SSNG1/2-A3] (Eterna round: R96, puzzle: Same State NG 1)",,,,208 nM,462 nM,1240 nM
"GUAACAUGACGAGGAUAUGGAACAUGAGGAUCACCCAUGUAUGUUCCAUAACGCGAAUAAAGAAUCCAGAAGGCGUCGUGAAAU [Mat - Same State NG 2 - JL mod - D33] (Eterna round: R96, puzzle: Same State NG 2)",,,,22.1 nM,118 nM,120 nM
"GGUCGGAACCACAUGAGGAUCACCCAUGUUCCGGAAACGGUACAGGAUAUCUGUCCGAAAAGGUCAGAGAAGGGUGAACCGACC [Fiskers NG3ss - 77] (Eterna round: R96, puzzle: Same State NG 3)",,,,1090 nM,349 nM,312 nM
"GCUACGGCAGUAGGAUAUGUAGGAUAUGGCGAGAGCUAAGCUUGGAAGUCACUUCAGCCAGAAGGACAGAAGGACACCGUGAGG [pwkr ssNG2 2FMN + F9.16] (Eterna round: R96, puzzle: Same State NG 2)",,,,125 nM,22.5 nM,24.7 nM
"GGCCUGAGUCAAGGAUAUGCUACCGUUUCGGUAGCAGAAGGUGAUCACAUGAGGAUCACCCAUGUUUACGCGAAGACGCGCGCC (Eterna round: R96, puzzle: Same State NG 1)",,,,128 nM,56.7 nM,35.7 nM
"CCGCUAAAUGGAGGAUAUGGAGCCUUAUUGGCUCCAGAAGGUCAAAACAUGAGGAUCACCCAUGUGCGGCGGUCUAAUGACCGA [Eli NG1ss - 48] (Eterna round: R96, puzzle: Same State NG 1)",,,,,122 nM,
"GUGGAGGGUUGAGGAUAUUGGUUGCAUAUGUUUAACAUGAGGAUCACCCAUGUGGGUUGCGGUUUCGAGAAGGUAGGUUGCUGG [salish99_SSNG2_r04_043] (Eterna round: R96, puzzle: Same State NG 2)",,,,90.8 nM,82.2 nM,75.2 nM
AACAAUCUAUCUGAGGAUAUCAUGAAAUAAACAUGAGGAUCACCCAUGUGCAGGAAAACUGCAUAUGAGAAGGCUGAUAGAUUGA [salish99_ss2_r3_051] (puzzle: Same State 2),78 nM,574 nM,5350 nM,,,
UCUUGGUUUUUGCUCGUUUUUUGUGUUGAACAUGAGGAUCACCCAUGUAUUGUACAAUCCGGUUUAAUAAUGGUCCG [JMF 51] (puzzle: Sensor for hsa-mir-208a),35.2 nM,26.7 nM,36.3 nM,,,
"UAUCCAUAGAUAGGAUAUCAGUAUACAUGAGGAUCACCCAUGUUAUACUUGGUUUUAAGUUAGUCUGAGAAGGAUCUUGAUGAA [SameState NG2 #4] (Eterna round: R96, puzzle: Same State NG 2)",,,,12.6 nM,11 nM,12.9 nM

Sequence,apparent KD of MS2 coat protein [1],apparent KD of MS2 coat protein [2],apparent KD of MS2 coat protein [3],apparent KD of MS2 coat protein (input ligand: FMN 200 uM),apparent KD of MS2 coat protein [4],apparent KD of MS2 coat protein (input ligand: none)
"GUCCGUAUCACAGGAUAUCCUAGUCAUGAUCUAGGAGAAGGGUGGCCACAUGAGGAUCACCCAUGUGAAGUGCCAGAGGCACGA [MOD2 Xexeraed] (Eterna round: R96, puzzle: Same State NG 1)",,,,687 nM,64.8 nM,149 nM
AGAUGGUGUGGAAAGGAUAUACUGUUGAGGACAUGAGGAUCACCCAUGUGGUAGAGGAGGUAAGGGUAGAAGGUUCGGGAUUGGU [JR_SS@_Sub020] (puzzle: Same State 2),29.9 nM,32.3 nM,41.6 nM,,,
AGGCUCAGCAUGCAGGAUAUAGUCGCUGCGACAUGAGGAUCACCCAUGUGGUGUGAAAGAAAGCGCUAGAAGGGUAAAGUGAGUG [Beeran] (puzzle: Same State 2),244 nM,467 nM,750 nM,,,
GGAGCCGGUACUGAGGAUAUUCAUAUUAAAACAUGAGGAUCACCCAUGUAGGCCAGAAGGCCUUGGGAGAAGGCGGAUCGGCUCC [Biseusra - 2] (puzzle: Same State 2),22 nM,180 nM,417 nM,,,
UACAAUCUAUCUGAGGAUAUCAUGAUCAUAACAUGAGGAUCACCCAUGUGCAGGAAAACUGCAUAUGAGAAGGCAGAUAGAUUGU [salish99_ss2_r3_073] (puzzle: Same State 2),214 nM,154 nM,863 nM,,,
"UGUUGUAUUACAGGAUAUCUAUUAGUUAUAUUUAGAGAAGGGUAUUCACAUGAGGAUCACCCAUGUAUAUACGAGGAAGUUGUG [JMF's solution 91] (Eterna round: R96, puzzle: Same State NG 1)",,,,,42.3 nM,
ACAAGCUUUUCUGUAUUGAAAGGUGGGAUACAUGAGGAUCACCCAUGUUUUUUUGAAAAUAAUAUUCCUCGUCUUAU [JR_SHM208A_Sub091] (puzzle: Sensor for hsa-mir-208a),51.5 nM,33.1 nM,47.1 nM,,,
"GGUGCCAAUAAAGCCUACAUGAGGAUCACCCAUGUAUGUAGGCAGGAUAUCGUAUGCAAAGCAUACGAGAAGGGCCGAGGCACC [Mat - Same State NG 3 - JL Mod - D56] (Eterna round: R96, puzzle: Same State NG 3)",,,,18.7 nM,29.1 nM,37 nM
"AGCUAGUACCGAGGAUAUACAUACAUGAGGAUCACCCAUGUAUACAUGAUUUAAUGAGACUACAUGUAGAAGGCGGUACUAGCA [JL SSNG2 1.23] (Eterna round: R96, puzzle: Same State NG 2)",,,,22 nM,68.6 nM,79.1 nM
"GACAAUCUAUCUGAGGAUAUCAUGAAAAAAACAUGAGGAUCACCCAUGUGCAGGAAAACUGCAUAUGAGAAGGCAGAUAGAUUGC [salish99_SS2_r3_012] (Eterna round: R96, puzzle: Same State 2)",,,,,429 nM,
"AUAAUAAGGACAGGAUAUGGGAAAGGAAGUGUACUAGAAGGGUCGAGAAGACCAGAACAUGAGGAUCACCCAUGUGAUGGGAAA [PowerStrip SSNG 1.28] (Eterna round: R96, puzzle: Same State NG 1)",,,,21.7 nM,23.3 nM,36.1 nM
"GCUCGAUGUGUUGUCUACAUGAGGAUCACCCAUGUAGGUGCGGAGGAUAUCUACGUGCUUUAUGUAGAGAAGGUCGUAUCGAGC [SameState NG3 #86] (Eterna round: R96, puzzle: Same State NG 3)",,,,21.5 nM,54.3 nM,71.4 nM
"GGUCGGACCUACAUGAGGAUCACCCAUGUUCCGGAAACGGCACAGGAUAUCUGUCCGAAAAGGUCAGAGAAGGGUGAACCGACC [Fiskers NG3ss - 75] (Eterna round: R96, puzzle: Same State NG 3)",,,,1000 nM,508 nM,1880 nM
"AUAAAACAUGAGGAUCACCCAUGUCAACAAAGUCGAGGAUAUGGGCAAAUAAAAUAAGAACCAGAAGGCGAAUUAU [salish99_ss1_r3_036] (Eterna round: R96, puzzle: Same State 1)",,,,36.8 nM,185 nM,247 nM
"AUUUGCGCUAUAGGAUAUGGCAGGGUGAACCAGCCAGAAGGAUAAGUAGGGAGGUGACAUGAGGAUCACCCAUGUAAUAAGGAA [Eternabot solution 6] (Eterna round: R96, puzzle: Same State NG 1)",,,,330 nM,290 nM,378 nM
